Molecular target: GPdM (EBOV, UniProt Q05320 33-632)
Assay: ELISA on coated truncated GP, method as example 2

B1: 单克隆抗体8F9 (antibody, V domains shown)
VH: EVQLLESGGGLVQPGGSLRLSCAASEFTFSNYAMNWVRQAPGKGLEWVSGISTRGSSTYYADSVKGRFTISRDNSKNTLYLQMNSLRVEDTAVYYCAKDRLSVFGVVLISSDYYGMDVWGQGTTVTVSS
VL: AIRMTQSPFSLSASVGDRVTITCRASRTISSYLNWYQKKPGKAPKLLIYAASSLQSGVPSRFSGSGSGTDFTLTISSLQPEDFATYYCQQSYSTPMTFGQGTRLEIKT
- EC50: 6.2 ng/mL
